Experimental data: US20130174289A1, “Na+/Mg2+ Exchanger” (FBN - Leibnitz-Institut fur Nutztierbiologie, published 2013)

Target: SLC41A1 (human)
Assay: split-ubiquitin method screen (DUALmembrane SU-YTH) for SLC41A1 complex-forming partners

SLC41A1 (human), sequence (chain, as listed by the source limits assumed): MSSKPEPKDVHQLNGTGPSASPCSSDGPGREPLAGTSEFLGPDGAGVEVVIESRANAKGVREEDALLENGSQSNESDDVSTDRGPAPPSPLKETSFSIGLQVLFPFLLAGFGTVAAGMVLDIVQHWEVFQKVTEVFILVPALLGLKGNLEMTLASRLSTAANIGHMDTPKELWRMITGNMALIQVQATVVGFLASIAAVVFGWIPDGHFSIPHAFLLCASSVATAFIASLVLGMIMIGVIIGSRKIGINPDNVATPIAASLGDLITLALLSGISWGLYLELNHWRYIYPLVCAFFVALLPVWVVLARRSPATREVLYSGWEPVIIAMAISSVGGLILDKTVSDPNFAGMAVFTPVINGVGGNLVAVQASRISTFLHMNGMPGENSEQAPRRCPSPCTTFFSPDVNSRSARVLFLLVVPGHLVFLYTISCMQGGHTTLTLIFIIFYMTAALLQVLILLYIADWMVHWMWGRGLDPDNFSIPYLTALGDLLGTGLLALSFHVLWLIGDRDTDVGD

B1: Kunitz-type protease inhibitor 2 (other)
chain: ADRERSIHDFCLVSKVVGRCRASMPRWWYNVTDGSCQLFVYGGCDGNSNNYLTKEECLKKCATVTENATGDLATSRNAADSSVPSAPRRQDSEDHSSDMFNYEEYCTANAVTGPCRASFPRWYFDVERNSCNNFIYGGCRGNKNSYRSEEACMLRCFRQQENPPLPLGSKVVVLAGLFVMVLILFLGASMVYLIRVARRNQERALRTVWSSGDDKEQLVKNTYVL
  occurrence: 2 clones

B2: Peptidyl-prolyl cis-trans isomerase B (enzyme)
chain: not shown
  occurrence: 5 clones

B3: Transmembrane protein 147 (other)
chain: MTLFHFGNCFALAYFPYFITYKCSGLSEYNAFWKCVQAGVTYLFVQLCKMLFLATFFPTWEGGIYDFIGEFMKASVDVADLIGLNLVMSRNAGKGEYKIMVAALGWATAELIMSRCIPLWVGARGIEFDWKYIQMSIDSNISLVHYIVASAQVWMITRYDLYHTFRPAVLLLMFLSVYKAFVMETFVHLCSLGSWAALLARAVVTGLLALSTLALYVAVVNVHS
  occurrence: 2 clones

B4: Transmembrane protein 14A (other)
chain: MDLIGFGYAALVTFGSIFGYKRRGGVPSLIAGLFVGCLAGYGAYRVSNDKRDVKVSLFTAFFLATIMGVRFKRSKKIMPAGLVAGLSLMMILRLVLLLL
  occurrence: 2 clones

B5: 3-beta-hydroxysteroid-Delta(8), Delta(7)-isomerase (Rattus norvegicus) (enzyme)
chain: MTTNMLPLHPYWPRHLRLDNFVPNDLPTWHILVGLFSFSGVLIVITWLLSSRVSVVPLGTGRRLALCWFAVCTFIHLVIEGWFSFYHEILLEDQAFLSQLWKEYSKGDSRYILSDGFIVCMESVTACLWGPLSLWVVIAFLRHQPFRFVLQLVVSVGQIYGDVLYFLTELRDGFQHGELGHPLYFWFYFVIMNAIWLVIPGILVFDAIKHLTNAQSMLDNKVMKIKSKHN
  occurrence: 1 clones

B6: Protein YIPF6 (other)
chain: MAEAEESPGDPGTASPRPLFAGLSDISISQDIPVEGEITIPMRSRIREFDSSTLNESVRNTIMRDLKAVGKKFMHVLYPRKSNTLLRDWDLWGPLILCVTLALMLQRDSADSEKDGGPQFAEVFVIVWFGAVTITLNSKLLGGNISFFQSLCVLGYCILPLTVAMLICRLVLLADPGPVNFMVRLFVVIVMFAWSIVASTAFLADSQPPNRRALAVYPVFLFYFVISWMILTFTPQ
  occurrence: 2 clones

B7: Protein disulfide-isomerase A6 (enzyme)
chain: LYSSSDDVIELTPSNFNREVIQSDSLWLVEFYAPWCGHCQRLTPEWKKAATALKDVVKVGAVDADKHHSLGGQYGVQGFPTIKIFGSNKNRPEDYQGGRTGEAIVDAALSALRQLVKDRLGGRSGGYSSGKQGRSDSSSKKDVIELTDDSFDKNVLDSEDVWMVEFYAPWCGHCKNLEPEWAAAASEVKEQTKGKVKLAAVDATVNQVLASRYGIRGFPTIKIFQKGESPVDYDGGRTRSDIVSRALDLFSDNAPPPELLEIINEDIAKRTCEEHQLCVVAVLPHILDTGAAGRNSYLEVLLKLADKYKKKMWGWLWTEAGAQSELETALGIGGFGYPAMAAINARKMKFALLKGSFSEQGINEFLRELSFGRGSTAPVGGGAFPTIVEREPWDGRDGELPVEDDIDLSDVELDDLGKDEL
  occurrence: 11 clones

B8: ATP synthase subunit a (Homo sapiens) (other)
chain: MNENLFASFIAPTILGLPAAVLIILFPPLLIPTSKYLINNRLITTQQWLIKLTSKQMMTMHNTKGRTWSLMLVSLIIFIATTNLLGLLPHSFTPTTQLSMNLAMAIPLWAGTVIMGFRSKIKNALAHFLPQGTPTPLIPMLVIIETISLLIQPMALAVRLTANITAGHLLMHLIGSATLAMSTINLPSTLIIFTILILLTILEIAVALIQAYVFTLLVSLYLHDNT
  occurrence: 1 clones

B9: Probable ergosterol biosynthetic protein 28 (other)
chain: MSRFLNVLRSWLVMVSIIAMGNTLQSFRDHTFLYEKLYTGKPNLVNGLQARTFGIWTLLSSVIRCLCAIDIHNKTLYHITLWTFLLALGHFLSELFVYGTAAPTIGVLAPLMVASFSILGMLVGLRYLEVEPVSRQKKRN
  occurrence: 2 clones

B10: UPF0414 transmembrane protein C20orf30 (other)
chain: MMPSRTNLATGIPSSKVKYSRLSSTDDGYIDLQFKKTPPKIPYKAIALATVLFLIGAFLIIIGSLLLSGYISKGGADRAVPVLIIGILVFLPGFYHLRIAYYASKGYRGYSYDDIPDFDD
  occurrence: 3 clones

B11: ATP synthase subunit a (Pan troglodytes) (other)
chain: MNENLFASFAAPTILGLPAAVLIILFPPLLVPTSKHLINNRLITTQQWLIQLTSKQMMTMHSTKGRTWSLMLVSLIIFITTTNLLGLLPHSFTPTTQLSMNLAMAIPLWAGAVVMGFRFKTKNALAHFLPQGTPTPLIPMLVIIETISLLIQPMALAVRLTANITAGHLLMHLIGSATLALSTINLPYALIIFTILILLTILEIAVALIQAYVFTLLVSLYLHDNT
  occurrence: 1 clones

B12: Signal peptidase complex subunit 1 (other)
chain: MARGGDTGCTGPSETSASGAVAIAFPGLEGPPADAQYQTLALTVPKSWSPSPRSLPPALSCPPPQPAMLEHLSSLPTQMDYKGQKLAEQMFQGIILFSAIVGFIYGYVAEQFGWTVYIVMAGFAFSCLLTLPPWPIYRRHPLKWLPVQESSTDDKKPGERKIKRHAKNN
  occurrence: 2 clones

B13: Uncharacterized protein C10orf35 (other)
chain: MVRILANGEIVQDDDPRVRTTTQPPRGSIPRQSFFNRGHGAPPGGPGPRQQQAGARLGAAQSPFNDLNRQLVNMGFPQWHLGNHAVEPVTSILLLFLLMMLGVRGLLLVGLVYLVSHLSQR
  occurrence: 2 clones

B14: ATP synthase subunit a (Tachyglossus aculeatus aculeatus) (other)
chain: MNENLFASFITPTILGISILPLIMIFPCLLFSAPNRWMPNRLVALQLWLVRMVTKQMMSMHNKQGRMWTLMLITLIMFIASTNLLGLLPYTFTPTTQLSMNMGMAVPLWLGTVLMGFRNKPKSSLAHFLPQGTPTPLIPMLIIIETISLFIQPVALAVRLTANITAGHLLIHLIGSATLALSSISLTVSTITFTILFLLTILEIAVALIQAYVFTLLVSLYLHDNT
  occurrence: 1 clones

B15: Uncharacterized protein C4orf3 (other)
chain: MEVDAPGVDGRDGLRERRGFSEGGRQNFDVRPQSGANGLPKHSYWLDLWLFILFDVVVFLFVYFLP
  occurrence: 2 clones

B16: UPF0480 protein C15orf24 homolog (other)
chain: SEVPGAAAEGSGGSGVGIGDRFKIEGRAVVPGVKPQDWISAARVLVDGEEHVGFLKTDGSFVVHDIPSGSYVVEVVSPAYRFDPVRVDITSKGKMRARYVNHIKTSEVVRLPYPLQMKSSGPPSYFIKRESWGWTDFLMNPMVMMMVLPLLIFVLLPKVVNTSDPDMRREMEQSMNMLNSNHELPDVSEFMTRLFSSKSSGKSSSGSSKTGKSGAGKRR
  occurrence: 1 clones

B17: UPF0480 protein C15orf24 (other)
chain: SEVPGAAAEGSGGSGVGIGDRFKIEGRAVVPGVKPQDWISAARVLVDGEEHVGFLKTDGSFVVHDIPSGSYVVEVVSPAYRFDPVRVDITSKGKMRARYVNYIKTSEVVRLPYPLQMKSSGPPSYFIKRESWGWTDFLMNPMVMMMVLPLLIFVLLPKVVNTSDPDMRREMEQSMNMLNSNHELPDVSEFMTRLFSSKSSGKSSSGSSKTGKSGAGKRR
  occurrence: 4 clones

B18: B-cell receptor-associated protein 31 (other)
chain: MSLQWTAVATFLYAEVFVVLLLCIPFISPKRWQKIFKSRLVELLVSYGNTFFVVLIVILVLLVIDAVREIRKYDDVTEKVNLQNNPGAMEHFHMKLFRAQRNLYIAGFSLLLSFLLRRLVTLISQQATLLASNEAFKKQAESASEAAKKYMEENDQLKKGAAVDGGKLDVGNAEVKLEEENRSLKADLQKLKDELASTKQKLEKAENQVLAMRKQSEGLTKEYDRLLEEHAKLQAAVDGPMDKKEE
  occurrence: 10 clones

B19: ATP synthase subunit a (Cricetulus griseus) (other)
chain: MNENLFSSFITPTLMGLPIIILIIMFPPVIMTSSKRLVNNRFHTFQQWLIKLITKQMMAIHSPKGRTWSLMLASLIIFIGSTNLLGLLPHTFTPTTQLSMNLGMAIPPWAGAVILGFRHKMKDSLAHFLPQGTPIPLIPMLVIIETISLFIQPMALAVRLTANITAGHLLMHLIGGATLVLTSISLPTAMITFIILIMLTILEFAVALIQAYVFTLLVSLYLHDNT
  occurrence: 1 clones

B20: Immediate early response 3-interacting protein 1 (other)
chain: MAFTLYSLLQAALLCVNAIAVLHEERFLKNIGWGTDQGIGGFGEEPGIKSQLMNLIRSVRTVMRVPLIIVNSIAIVLLLLFG
  occurrence: 3 clones

B21: Translocon-associated protein subunit gamma (other)
chain: MAPKGSSKQQSEEDLLLQDFSRNLSAKSSALFFGNAFIVSAIPIWLYWRIWHMDLIQSAVLYSVMTLVSTYLVAFAYKNVKFVLKHKVAQKREDAVSKEVTRKLSEADNRKMSRKEKDERILWKKNEVADYEATTFSIFYNNTLFLVVVIVASFFILKNFNPTVNYILSISASSGLIALLSTGSK
  occurrence: 4 clones
